Assay [1] addresses T1, Human IL-1Rrp2/IL-1R6 protein, His Tag (ACROBiosystems, IL2-H52H6) (human, UniProt Q9HB29 20-335).
T1 construct: Bought protein; the soluble protein is likely only the extracellular part; also called hIL-36R; human IL36R antigen; not shown: His tag
T1 sequence: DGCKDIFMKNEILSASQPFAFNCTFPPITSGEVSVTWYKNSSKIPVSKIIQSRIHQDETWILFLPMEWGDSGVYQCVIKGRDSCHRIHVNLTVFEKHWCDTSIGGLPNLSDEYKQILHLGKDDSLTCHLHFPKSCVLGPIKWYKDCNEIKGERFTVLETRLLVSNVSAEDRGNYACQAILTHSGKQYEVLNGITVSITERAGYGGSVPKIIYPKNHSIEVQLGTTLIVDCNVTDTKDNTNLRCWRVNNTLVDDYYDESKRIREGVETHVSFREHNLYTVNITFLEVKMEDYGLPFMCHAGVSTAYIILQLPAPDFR
Description: ELISA, plate coated with human IL-1Rrp2/IL-1R6 His Tag, HRP-protein A/G, OD450. The procedure: The binding activity of anti-IL-36R antibodies to IL-36R was analyzed by ELISA using human IL-1Rrp2/IL-1R6 protein, His Tag (ACROBiosystems, IL2-H52H6) and CynoIL36R-ECD mFc (for detection of chimeric and humanized antibodies), and hIL36R-ECD hFc and CynoIL36R-ECD hFc protein (for detection of hybridoma antibodies) as antigens. A 96-well plate (Costar, 9018) was coated with 2 μg/mL antigen at 100 μL/well and incubated overnight at 4° C. After the 96-well plate was washed with a washing buffer (PBS containing 0.05% v/v Tween 20), a blocking buffer (PBS containing 2% bovine serum albumin) was added for blocking at 37° C. for 2 h. After the 96-well plate was washed with the washing buffer, 100 μL of the gradient diluted anti-IL-36R antibody of the present disclosure or the reference antibody BI655130 (the initial concentration of the antibody was 66 nM, 4-fold gradient dilution) was added to each well, and the plate was incubated at room temperature for 1 h. After the 96-well plate was washed with the washing buffer, 100 μL of horseradish peroxidase-conjugated recombinant protein A/G (TheroScientific, 32490) was added to each well, and the plate was incubated at room temperature for 1 h. After the 96-well plate was washed with the washing buffer, 100 μL of a TMB solution (Thermo, 00-4201-56) was added to each well, and the plate was incubated at room temperature for 2 min. Finally, 100 μL of a stop solution (2 N H₂SO₄) was added to each well to stop the reaction. Absorbance was read at 450 nm using a microplate reader (PE, Envision), the resulting data was analyzed using GraphPad Prism, and EC₅₀ was calculated. Binding EC₅₀ of the chimeric anti-IL-36R antibodies to hIL-36R in an ELISA assay is shown in FIG. 1. and binding EC₅₀ of the chimeric anti-IL-36R antibodies to CynoIL-36R in an ELISA assay is shown in FIG. 2. The binding of BI655130 is shown as a control, and the binding of IgG4 is shown as a negative control.
(In general: ELISA stands for enzyme-linked immunosorbent assay.)

In assay [2] the target is T2, human IL-36R overexpressed on 293T-hIL36R-NFκB cells (human, UniProt Q9HB29 20-575).
T2 sequence: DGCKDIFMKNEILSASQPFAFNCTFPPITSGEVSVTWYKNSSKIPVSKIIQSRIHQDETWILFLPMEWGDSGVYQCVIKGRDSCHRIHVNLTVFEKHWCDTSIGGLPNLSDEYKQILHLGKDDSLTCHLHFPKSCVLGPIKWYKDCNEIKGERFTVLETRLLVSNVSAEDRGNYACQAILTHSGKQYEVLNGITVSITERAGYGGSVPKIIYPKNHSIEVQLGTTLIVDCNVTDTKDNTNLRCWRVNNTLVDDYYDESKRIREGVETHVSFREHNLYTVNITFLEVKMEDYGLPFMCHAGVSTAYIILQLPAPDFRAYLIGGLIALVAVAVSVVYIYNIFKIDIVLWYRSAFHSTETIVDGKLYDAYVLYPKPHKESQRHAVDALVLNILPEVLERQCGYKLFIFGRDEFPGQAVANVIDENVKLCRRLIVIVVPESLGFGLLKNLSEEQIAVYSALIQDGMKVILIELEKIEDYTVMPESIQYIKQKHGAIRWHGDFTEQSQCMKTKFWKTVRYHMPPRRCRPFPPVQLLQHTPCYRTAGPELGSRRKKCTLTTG
Description: cell-based or functional assay.

B1: hz72C1-1.2 (antibody, human IgG4 S228P, kappa)
heavy: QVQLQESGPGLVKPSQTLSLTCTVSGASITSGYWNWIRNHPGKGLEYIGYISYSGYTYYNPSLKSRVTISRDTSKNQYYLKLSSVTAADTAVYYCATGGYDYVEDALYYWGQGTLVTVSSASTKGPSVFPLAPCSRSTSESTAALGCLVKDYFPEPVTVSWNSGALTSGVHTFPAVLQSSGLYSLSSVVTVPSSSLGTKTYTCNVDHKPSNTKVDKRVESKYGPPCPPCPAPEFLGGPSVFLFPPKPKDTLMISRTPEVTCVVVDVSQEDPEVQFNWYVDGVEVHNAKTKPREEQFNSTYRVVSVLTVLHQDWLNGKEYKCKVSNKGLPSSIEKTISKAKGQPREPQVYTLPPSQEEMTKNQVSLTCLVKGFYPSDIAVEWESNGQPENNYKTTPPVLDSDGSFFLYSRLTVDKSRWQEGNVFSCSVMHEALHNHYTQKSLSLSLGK
light: DIQMTQSPSSLSASVGDRVTITCRASSNVRYMYWYQQKPGKAPKLWIYLTSNLASGVPSRFSGSGSGTSYTLTISSLQPEDFATYYCQQFTTSPYTFGQGTKLEIKRTVAAPSVFIFPPSDEQLKSGTASVVCLLNNFYPREAKVQWKVDNALQSGNSQESVTEQDSKDSTYSLSSTLTLSKADYEKHKVYACEVTHQGLSSPVTKSFNRGEC
notes: Humanized, human IgG4 / kappa
B1: a half-maximal effect in assay [1] (EC50) was put at 5.02 nM. In addition, in assay [2], the “IC50 (M); hIL36α; NFκB-luciferase” value was 1.04e-08 M, the “IC50 (M); hIL36αβγ; NFκB-luciferase” value is about 4.15e-08 M, the “IC50 (M); hIL36β; NFκB-luciferase” value is 5.07e-09 M and the “IC50 (M); hIL36γ; NFκB-luciferase” value was found to be 2.18e-08 M. In assay [2], the “Maximum inhibition rate %; hIL36α; NFκB-luciferase” value is 101%, the “Maximum inhibition rate %; hIL36αβγ; NFκB-luciferase” value (“Maximum inhibition rate %; hIL36αβγ” for short) came to 86.7%, the “Maximum inhibition rate %; hIL36β; NFκB-luciferase” value (“Maximum inhibition rate %; hIL36β” below) came to 96.9% and the “Maximum inhibition rate %; hIL36γ; NFκB-luciferase” value (“Maximum inhibition rate %; hIL36γ” for short) is 98.4%.

B2: hz72C1-2.1 (antibody, human IgG4 S228P, kappa)
heavy: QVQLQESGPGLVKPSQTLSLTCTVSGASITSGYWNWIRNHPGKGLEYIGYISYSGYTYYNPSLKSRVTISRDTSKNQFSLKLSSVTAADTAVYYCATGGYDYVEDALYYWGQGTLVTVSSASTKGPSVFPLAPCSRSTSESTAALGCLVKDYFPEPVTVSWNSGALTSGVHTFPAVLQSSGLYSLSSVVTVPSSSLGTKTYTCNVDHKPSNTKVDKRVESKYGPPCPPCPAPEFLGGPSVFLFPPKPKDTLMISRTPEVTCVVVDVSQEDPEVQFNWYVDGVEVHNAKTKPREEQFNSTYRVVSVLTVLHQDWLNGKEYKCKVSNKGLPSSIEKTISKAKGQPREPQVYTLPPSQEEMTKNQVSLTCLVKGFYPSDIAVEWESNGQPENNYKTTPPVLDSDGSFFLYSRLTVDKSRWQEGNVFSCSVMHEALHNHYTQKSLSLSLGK
light: DIQMTQSPSSLSASVGDRVTITCRASSNVRYMYWYQQKPGKAPKLWIYLTSNLASGVPSRFSGSGSGTSYTLTISSLQPEDFATYYCQQYTTSPYTFGQGTKLEIKRTVAAPSVFIFPPSDEQLKSGTASVVCLLNNFYPREAKVQWKVDNALQSGNSQESVTEQDSKDSTYSLSSTLTLSKADYEKHKVYACEVTHQGLSSPVTKSFNRGEC
notes: Humanized, human IgG4 / kappa
With B2, a half-maximal effect in assay [1] (EC50) was put at 9.35 nM. For the same molecule, in assay [2], the “IC50 (M); hIL36α; NFκB-luciferase” value turned out to be 9.83e-09 M, the “IC50 (M); hIL36αβγ; NFκB-luciferase” value was 6.62e-08 M, the “IC50 (M); hIL36β; NFκB-luciferase” value was determined as 5.08e-09 M and the “IC50 (M); hIL36γ; NFκB-luciferase” value amounted to 3.72e-08 M. For the same molecule, in assay [2], the “Maximum inhibition rate %; hIL36α; NFκB-luciferase” value worked out at 87.9%, the “Maximum inhibition rate %; hIL36αβγ” value was determined as 70.5%, the “Maximum inhibition rate %; hIL36β” value came out at 92.3% and the “Maximum inhibition rate %; hIL36γ” value turned out to be 85.4%.

B3: hz72C1-2.3 (antibody, human IgG4 S228P, kappa)
heavy: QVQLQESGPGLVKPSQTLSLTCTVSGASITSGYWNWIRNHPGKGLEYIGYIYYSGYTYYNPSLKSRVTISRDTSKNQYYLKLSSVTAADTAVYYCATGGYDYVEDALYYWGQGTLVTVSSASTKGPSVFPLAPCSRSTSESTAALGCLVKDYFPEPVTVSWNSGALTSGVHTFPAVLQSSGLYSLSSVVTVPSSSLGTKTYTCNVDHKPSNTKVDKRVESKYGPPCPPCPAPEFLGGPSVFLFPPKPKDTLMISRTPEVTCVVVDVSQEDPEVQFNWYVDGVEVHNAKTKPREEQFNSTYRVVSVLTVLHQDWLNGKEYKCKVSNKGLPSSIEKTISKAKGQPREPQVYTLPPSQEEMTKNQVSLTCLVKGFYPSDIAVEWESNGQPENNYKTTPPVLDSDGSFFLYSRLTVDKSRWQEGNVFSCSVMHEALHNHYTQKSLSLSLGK
light: DIQMTQSPSSLSASVGDRVTITCRASSNVRYMYWYQQKPGKAPKLWIYLTSNLASGVPSRFSGSGSGTSYTLTISSLQPEDFATYYCQQYTTSPYTFGQGTKLEIKRTVAAPSVFIFPPSDEQLKSGTASVVCLLNNFYPREAKVQWKVDNALQSGNSQESVTEQDSKDSTYSLSSTLTLSKADYEKHKVYACEVTHQGLSSPVTKSFNRGEC
notes: Humanized, human IgG4 / kappa
Regarding B3, the EC50 (commonly the midpoint of the concentration-response curve) in assay [1] is 8.9 nM. In assay [2], the “IC50 (M); hIL36α; NFκB-luciferase” value worked out at 1.61e-08 M, the “IC50 (M); hIL36αβγ; NFκB-luciferase” value is about 1.39e-08 M, the “IC50 (M); hIL36β; NFκB-luciferase” value came out at 2.93e-09 M and the “IC50 (M); hIL36γ; NFκB-luciferase” value turned out to be 2.94e-08 M. Besides, in assay [2], the “Maximum inhibition rate %; hIL36α; NFκB-luciferase” value stood at 90.8%, the “Maximum inhibition rate %; hIL36αβγ” value is 66.3%, the “Maximum inhibition rate %; hIL36β” value amounted to 83.7% and the “Maximum inhibition rate %; hIL36γ” value worked out at 89%.

B4: hz72C1-1.3 (antibody, human IgG4 S228P, kappa)
heavy: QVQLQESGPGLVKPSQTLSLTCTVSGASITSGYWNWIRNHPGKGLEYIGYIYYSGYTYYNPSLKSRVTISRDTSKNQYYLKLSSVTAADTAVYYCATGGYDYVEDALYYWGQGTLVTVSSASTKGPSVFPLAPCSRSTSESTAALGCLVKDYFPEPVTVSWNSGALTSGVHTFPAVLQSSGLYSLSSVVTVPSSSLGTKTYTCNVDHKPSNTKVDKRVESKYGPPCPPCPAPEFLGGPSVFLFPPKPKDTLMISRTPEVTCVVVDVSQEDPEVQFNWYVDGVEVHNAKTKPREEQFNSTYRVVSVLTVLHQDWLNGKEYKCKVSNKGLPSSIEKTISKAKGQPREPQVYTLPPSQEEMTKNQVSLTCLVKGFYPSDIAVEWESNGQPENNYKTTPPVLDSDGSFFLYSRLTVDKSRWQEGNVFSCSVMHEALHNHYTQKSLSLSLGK
light: DIQMTQSPSSLSASVGDRVTITCRASSNVRYMYWYQQKPGKAPKLWIYLTSNLASGVPSRFSGSGSGTSYTLTISSLQPEDFATYYCQQFTTSPYTFGQGTKLEIKRTVAAPSVFIFPPSDEQLKSGTASVVCLLNNFYPREAKVQWKVDNALQSGNSQESVTEQDSKDSTYSLSSTLTLSKADYEKHKVYACEVTHQGLSSPVTKSFNRGEC
notes: Humanized, human IgG4 / kappa
For B4, in assay [1], the response was half-maximal at 2.86 nM (EC50). Besides, in assay [2], the “IC50 (M); hIL36α; NFκB-luciferase” value came out at 6.82e-09 M, the “IC50 (M); hIL36αβγ; NFκB-luciferase” value was 4.03e-08 M, the “IC50 (M); hIL36β; NFκB-luciferase” value was determined as 3.88e-09 M and the “IC50 (M); hIL36γ; NFκB-luciferase” value was 1.88e-08 M. In assay [2], the “Maximum inhibition rate %; hIL36α; NFκB-luciferase” value was determined as 98.7%, the “Maximum inhibition rate %; hIL36αβγ” value worked out at 90.1%, the “Maximum inhibition rate %; hIL36β” value is 96.7% and the “Maximum inhibition rate %; hIL36γ” value came out at 101%.

B5: hz72C1-1.1 (antibody, human IgG4 S228P, kappa)
heavy: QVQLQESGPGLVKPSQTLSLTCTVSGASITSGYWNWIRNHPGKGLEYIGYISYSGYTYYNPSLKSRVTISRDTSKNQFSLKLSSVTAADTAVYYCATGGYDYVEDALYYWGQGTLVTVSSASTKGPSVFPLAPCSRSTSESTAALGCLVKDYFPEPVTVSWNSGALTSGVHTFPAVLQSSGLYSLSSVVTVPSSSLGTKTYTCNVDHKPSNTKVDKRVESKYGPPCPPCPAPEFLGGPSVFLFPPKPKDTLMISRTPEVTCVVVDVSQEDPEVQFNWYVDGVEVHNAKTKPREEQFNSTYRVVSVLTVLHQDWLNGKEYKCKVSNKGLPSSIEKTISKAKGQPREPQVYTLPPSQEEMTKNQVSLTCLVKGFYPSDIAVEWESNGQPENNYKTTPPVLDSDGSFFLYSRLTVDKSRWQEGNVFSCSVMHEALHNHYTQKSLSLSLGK
light: DIQMTQSPSSLSASVGDRVTITCRASSNVRYMYWYQQKPGKAPKLWIYLTSNLASGVPSRFSGSGSGTSYTLTISSLQPEDFATYYCQQFTTSPYTFGQGTKLEIKRTVAAPSVFIFPPSDEQLKSGTASVVCLLNNFYPREAKVQWKVDNALQSGNSQESVTEQDSKDSTYSLSSTLTLSKADYEKHKVYACEVTHQGLSSPVTKSFNRGEC
notes: Humanized, human IgG4 / kappa; also called humanized 72C1 antibody 1.1
Take B5: in assay [1], the EC50 stood at 2.94 nM. Also, in assay [2], the “IC50 (M); hIL36α; NFκB-luciferase” value was determined as 9.56e-09 M, the “IC50 (M); hIL36αβγ; NFκB-luciferase” value was determined as 5.27e-08 M, the “IC50 (M); hIL36β; NFκB-luciferase” value came out at 3.07e-09 M and the “IC50 (M); hIL36γ; NFκB-luciferase” value is 2.82e-08 M. In assay [2], the “Maximum inhibition rate %; hIL36α; NFκB-luciferase” value came to 99.6%, the “Maximum inhibition rate %; hIL36αβγ” value is 109%, the “Maximum inhibition rate %; hIL36β” value is 94.6% and the “Maximum inhibition rate %; hIL36γ” value stood at 98.1%.

B6: hz72C1-2.2 (antibody, human IgG4 S228P, kappa)
heavy: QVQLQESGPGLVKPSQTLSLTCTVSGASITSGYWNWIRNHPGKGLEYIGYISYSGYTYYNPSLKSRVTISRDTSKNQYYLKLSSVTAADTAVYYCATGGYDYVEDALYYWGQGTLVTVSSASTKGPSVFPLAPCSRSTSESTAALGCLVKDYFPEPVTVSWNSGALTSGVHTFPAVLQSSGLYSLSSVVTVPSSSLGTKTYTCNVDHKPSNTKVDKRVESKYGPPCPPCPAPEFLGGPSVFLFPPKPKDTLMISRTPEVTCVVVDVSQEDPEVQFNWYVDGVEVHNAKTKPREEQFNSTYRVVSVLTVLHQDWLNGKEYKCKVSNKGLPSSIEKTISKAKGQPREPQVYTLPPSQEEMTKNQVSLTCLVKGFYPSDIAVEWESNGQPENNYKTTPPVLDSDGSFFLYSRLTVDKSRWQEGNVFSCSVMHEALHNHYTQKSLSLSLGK
light: DIQMTQSPSSLSASVGDRVTITCRASSNVRYMYWYQQKPGKAPKLWIYLTSNLASGVPSRFSGSGSGTSYTLTISSLQPEDFATYYCQQYTTSPYTFGQGTKLEIKRTVAAPSVFIFPPSDEQLKSGTASVVCLLNNFYPREAKVQWKVDNALQSGNSQESVTEQDSKDSTYSLSSTLTLSKADYEKHKVYACEVTHQGLSSPVTKSFNRGEC
notes: Humanized, human IgG4 / kappa
For the molecule B6, a half-maximal effect in assay [1] (EC50) was put at 4.88 nM. Moreover, in assay [2], the “IC50 (M); hIL36α; NFκB-luciferase” value is 1.61e-08 M, the “IC50 (M); hIL36αβγ; NFκB-luciferase” value is about 4.44e-08 M, the “IC50 (M); hIL36β; NFκB-luciferase” value turned out to be 4.66e-09 M and the “IC50 (M); hIL36γ; NFκB-luciferase” value worked out at 3.68e-08 M. Moreover, in assay [2], the “Maximum inhibition rate %; hIL36α; NFκB-luciferase” value worked out at 92%, the “Maximum inhibition rate %; hIL36αβγ” value came out at 77.9%, the “Maximum inhibition rate %; hIL36β” value was 94.7% and the “Maximum inhibition rate %; hIL36γ” value amounted to 87.9%.

The record behind these values is patent US20240270857A1 (CHIA TAI TIANQING PHARMACEUTICAL GROUP, published 2024).
